The values below come from US7166426.

Experiment [1] addresses NS3/4a conformational epitope with Thr to Pro and Ser to Ile substitutions (hepatitis C virus, HCV-1 (HCV1a)) (UniProt P26664). Briefly: ELISA, antigen coated on microtiter plate, negative control. A general note: ELISA stands for enzyme-linked immunosorbent assay.
Experiment [2] addresses c200 antigen. Described as above.
For experiment [3], the target named is denatured NS3/4a (hepatitis C virus, HCV-1 (HCV1a)) (UniProt P26664). The experiment is described as above.
Experiment [4] has as its target NS3/4a conformational epitope with Thr to Pro and Ser to Ile substitutions (hepatitis C virus, HCV-1 (HCV1a)) (UniProt P26664). Briefly: ELISA, antigen coated on microtiter plate, average of the negative controls.
The target of experiment [5] is c200 antigen. The description is as above.
Experiment [6] has as its target denatured NS3/4a (hepatitis C virus, HCV-1 (HCV1a)) (UniProt P26664). The description is as above.

Values joined by “and” are separate entries in the source; they are usually repeats but may differ in a detail not shown here. Equal values may be shown once.

Turning to HCV 3.0 Controls, negative control, the OD in experiment [1] is 0.023 OD and 0.027 OD and 0.021 OD; in the experiment with c200 antigen [2] it was 0.008 OD and 0.007 OD and 0.005 OD; in experiment [3], 0.024 OD and 0.017 OD. The OD (average of Neg. Cont.) in experiment [4] amounted to 0.024 OD; with c200 antigen [5], 0.007 OD; in experiment [6], 0.022 OD.
